According to patent publication US20250282828A1, “PEPTIDES FOR THE TREATMENT OF RESPIRATORY INFECTIONS OF VIRAL ORIGIN” (CENTRO DE INGENIERÍA GENÉTICA Y BIOTECNOLOGÍA, priority 2020, published 2025):
Like-named read-outs stand apart in the source and are kept apart here. No end group written: not given here.

Experiments:
SARS-CoV-2 [1] = assay: microbe, parasite or virus in culture; conditions: Severe acute respiratory syndrome coronavirus 2, Vero C1008, read-out: IC50 Compound
SARS-CoV-2 [2] = conditions: VeroE6
viral proteins = assay: BIACORE surface plasmon resonance interaction, all proteins evaluated; assay type: binding
SARS-CoV-2 [3] = conditions: 96 h, 100 μM
SARS-CoV-2 [4] = tested on: SARS-CoV-2
[5] = target: T1, nucleocapsid protein of the SARS-CoV-2 virus (N protein) (SARS-CoV-2), P0DTC9
[6] = target: T2, envelope protein of the Zika virus (ZIKV E) (Zika virus), Q32ZE1; assay: SPR (BIACORE)
T2 chain: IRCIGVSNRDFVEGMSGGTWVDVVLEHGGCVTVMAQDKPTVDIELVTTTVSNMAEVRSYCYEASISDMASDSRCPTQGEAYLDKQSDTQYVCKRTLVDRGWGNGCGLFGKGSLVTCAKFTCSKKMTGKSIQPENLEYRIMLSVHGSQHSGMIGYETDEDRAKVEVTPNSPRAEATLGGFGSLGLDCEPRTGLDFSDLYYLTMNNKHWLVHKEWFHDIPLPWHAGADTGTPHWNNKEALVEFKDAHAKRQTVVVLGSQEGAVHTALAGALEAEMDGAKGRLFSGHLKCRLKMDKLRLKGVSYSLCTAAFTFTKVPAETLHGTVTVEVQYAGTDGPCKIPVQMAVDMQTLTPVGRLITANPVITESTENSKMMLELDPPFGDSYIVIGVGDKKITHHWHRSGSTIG

[7] = target: T3, Dengue 2 virus capsid protein (Dengue virus 2), P29990; assay: SPR (BIACORE); Peptide SEQ ID NO: 1
T3 chain: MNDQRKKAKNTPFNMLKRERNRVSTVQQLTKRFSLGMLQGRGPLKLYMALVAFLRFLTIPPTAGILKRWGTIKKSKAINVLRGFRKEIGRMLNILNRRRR

[8] = target: T1, nucleocapsid protein of the SARS-CoV-2 …; assay: SPR (BIACORE); Peptide SEQ ID NO: 1
[9] = target: T3, Dengue 2 virus capsid protein (Dengue …)
[10] = target: T2, envelope protein of the Zika virus …
[11] = target: T4, non-structural protein 1 of the Dengue virus 2 (NS1-D2) (Dengue virus 2), P29990
T4 chain: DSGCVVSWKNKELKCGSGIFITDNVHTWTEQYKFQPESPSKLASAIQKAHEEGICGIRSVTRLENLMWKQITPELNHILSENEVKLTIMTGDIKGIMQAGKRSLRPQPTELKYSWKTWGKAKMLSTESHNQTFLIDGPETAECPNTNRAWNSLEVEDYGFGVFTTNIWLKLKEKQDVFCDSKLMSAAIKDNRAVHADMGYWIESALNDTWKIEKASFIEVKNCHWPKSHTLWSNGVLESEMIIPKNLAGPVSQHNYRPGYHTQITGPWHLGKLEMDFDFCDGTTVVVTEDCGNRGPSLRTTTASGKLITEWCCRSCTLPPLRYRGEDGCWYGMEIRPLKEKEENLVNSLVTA

[12] = target: T3, Dengue 2 virus capsid protein (Dengue …); assay: SPR (BIACORE)
[13] = target: T1, nucleocapsid protein of the SARS-CoV-2 …; assay: SPR (BIACORE)
[14] = target: T3, Dengue 2 virus capsid protein (Dengue …); assay: SPR (BIACORE); Peptide SEQ ID NO: 2
[15] = target: T1, nucleocapsid protein of the SARS-CoV-2 …; assay: SPR (BIACORE); Peptide SEQ ID NO: 2

Molecule: NC(=O)c1nc(F)c[nH]c1=O [Favipiravir]
- IC50 (SARS-CoV-2 [1]): 65300 nM

Molecule: N=C(N)c1ccc2cc(OC(=O)c3ccc(N=C(N)N)cc3)ccc2c1 [Nafamostat]
- IC50 (SARS-CoV-2 [1]): 20100 nM

Molecule: CCC(CC)COC(=O)[C@H](C)N[P@](=O)(OC[C@H]1O[C@@](C#N)(c2ccc3c(N)ncnn23)[C@H](O)[C@@H]1O)Oc1ccccc1 [Remdisivir]
- IC50 (SARS-CoV-2 [1]): 2400 nM

Molecule: NC(=O)c1ncn([C@@H]2O[C@H](CO)[C@@H](O)[C@H]2O)n1 [Ribavirin]
- IC50 (SARS-CoV-2 [1]): 40200 nM

Molecule: Ivermectin
- IC50 (SARS-CoV-2 [2]; read-out: IC50 Compound + peptide SEQ ID NO: 1, in presence of peptide SEQ ID NO: 1 at 10 μM): 210 nM
- IC50 (SARS-CoV-2 [2]; read-out: IC50 Compound + peptide SEQ ID NO: 2, in presence of peptide SEQ ID NO: 2): 150 nM
- IC50 (SARS-CoV-2 [2]; read-out: IC50 Compound + peptide SEQ ID NO: 3, in presence of peptide SEQ ID NO: 3): 200 nM
- IC50 (SARS-CoV-2 [2]; read-out: IC50 Compound, compound alone): 2700 nM

Molecule: RVTQMNLNDRLASLADKV [SEQ ID NO: 22]
- interaction with the proteins evaluated (viral proteins): did not interact
- Inhibition % (SARS-CoV-2 [3]): 20.2%
- inhibition of SARS-CoV-2 in primary cultures of human airway epithelium (SARS-CoV-2 [4]): ≤ 20%

Molecule: RVTQMNLNDRLASLYDKV (modifications not checked) [peptide identified in the Sequence Listing as SEQ ID NO: 1]
- Kd [5]: 3.58 nM
- koff [5]: 0.000972 s⁻¹
- kon [5]: 271000 M⁻¹ s⁻¹
- Kd [6]: 1590 nM
- Kd [7]: 1.67 nM
- Kd [8]: 3.58 nM
- Kd [9]: 1.67 nM
- koff [9]: 0.000413 s⁻¹
- kon [9]: 247000 M⁻¹ s⁻¹
- Kd [10]: 1590 nM
- koff [10]: 0.00154 s⁻¹
- kon [10]: 965 M⁻¹ s⁻¹
- Kd [11]: 769 nM
- koff [11]: 1.02e-05 s⁻¹

Molecule: NDRLASLYDKV (modifications not checked) [Peptide SEQ ID NO: 14]
- Kd [12]: 5910 nM
- Kd [6]: 3200 nM
- Kd [13]: 1140 nM

Molecule: RVTQMNLNDRLASLYDKV (modifications not checked) [Peptide SEQ ID NO: 2]
- Kd [6]: 18200 nM
- Kd [14]: 754 nM
- Kd [15]: 523 nM

Molecule: NLNDRLASLYDKV (modifications not checked) [Peptide SEQ ID NO: 15]
- Kd [12]: 1270 nM
- Kd [6]: 62.4 nM
- Kd [13]: 7820 nM
